The record followed here is patent US9987370B2, “Self-assembling drug amphiphiles and methods for synthesis and use” (priority 2012, dated 2018).

Side chains are listed from the residue outwards. Ends that are not written are not given here. Peptide text beside a SMILES is read from it. * marks the point of attachment. X1 = CC(=O)N[C@@H](CSSCCCC(=O)O[C@@H](C(=O)O[C@H]1C[C@@]2(O)[C@@H](OC(=O)c3ccccc3)[C@@H]3[C@]4(OC(C)=O)CO[C@@H]4C[C@H](O)[C@@]3(C)C(=O)[C@H](OC(C)=O)C(=C1C)C2(C)C)[C@@H](NC(=O)c1ccccc1)c1ccccc1)C(=O)*; Paclitaxel(2'-OCO(CH2)3S) = CC(=O)O[C@H]1C(=O)[C@@]2(C)[C@H]([C@H](OC(=O)c3ccccc3)[C@]3(O)C[C@H](OC(=O)[C@H](OC(=O)CCCS*)[C@@H](NC(=O)c4ccccc4)c4ccccc4)C(C)=C1C3(C)C)[C@]1(OC(C)=O)CO[C@@H]1C[C@@H]2O; buSS = disulfanylbutanoate linker

The subject of data set [1] is co-culture of KB-3-1 and KB-V1 cervical cancer cells. As to conditions: co-culture KB-3-1 and KB-V1, 48 hours.
Description: Cell viability was determined by SRB assay after 48 hours incubation with the appropriate drug-containing media. […] Data are given as mean±s.d. (n=3).
Cell Culture. KB-3-1 and KB-V1 ovarian cancer cells were cultured in DMEM (Invitrogen) containing 10% fetal bovine serum (FBS, Invitrogen) and 1% of antibiotics (Invitrogen), and 1 μg/mL vinblastine was added for KB-V1 to maintain its multidrug resistance. The two cell types were incubated at 37° C. in an Oasis humidified incubator with a 5% CO2 atmosphere (Caron, Marietta, Ohio).
Cytotoxicity Protocol. KB-3-1, KB-V1 or their co-culture (1:1) were seeded onto 96-well plate (5×10^3 cells/well) and allowed to attach overnight. […] Medium containing the same concentration of PXL or/and CPT in the form of free drugs or conjugates (dCPT-Sup35 or dPXL-Sup35) were also used to incubate the cells, with non-treated cells (solvent only) as the control group. After 48 hours incubation, the cell viability was determined using the SRB method according to the manufacturer's protocol (TOX-6, Sigma, St. Louis, Mo.).
For data set [2], the system named is PXL-resistant KB-V1 cervical cancer cells. Kind of data set: Cytotoxicity study of dual drug amphiphiles by SRB. As to conditions: KB-V1, 48 hours. Type of data set: cell-based. Here is the method: (§1) Both cell lines are sensitive to CPT. […] (n=3).
(§2) Cytotoxicity Study. The activity of the synthesized conjugates to prohibit proliferative ability was assessed through the determination of a dose-response relationship against PXL-sensitive and -resistant cervical cancer cell lines—KB-3-1 and KB-V1, respectively. Both cell lines were individually incubated for 48 hours with the conjugates alone or in combination, either individually to determine their sensitivity to the conjugates (FIGS. 46 a-b) and also as a co-culture to mimic a heterogeneous tumor (FIG. 46 c). […] This antagonistic behavior has been previously observed, and is suspected to arise from an up-regulation of anti-apoptosis genes on co-treatment with CPT that would inhibit the mechanism by which PXL exerts its cytotoxicity.

In data set [3] the test system is PXL-sensitive KB-3-1 cervical cancer cells. Kind of data set: Cytotoxicity study of dual drug amphiphiles by SRB. Type of data set: cell-based. The following applies: KB-3-1, 48 hours. As for the experimental part:
as §1, §2

In data set [4] the test system is non-small cell lung cancer A549. The format is cell-based, human. As for the experimental part: (§3) To evaluate anti-tumor efficacy, the cytotoxicity of PXL-buSS-Tau towards human breast cancer MCF-7, non-small cell lung cancer A549, and human prostate cancer PC-3 FLU cell lines was determined (FIG. 33).
The test system of data set [5] is human prostate cancer PC-3 FLU. Kind of data set: Cytotoxicity of PXL-buSS-Tau by SRB assay. The following applies: 48 hours. Type of data set: cell-based. Here is the method: as §3
(In general: In SRB staining, fixed cells bind dye roughly in proportion to their protein.)

The nature of data set [6]: PXL release study in PBS buffer at 37° C. The format is physicochemical. As for the experimental part:
FIG. 32 depicts the PXL-buSS-Tau release curve in PBS buffer under 37° C.
PXL release studies were carried out at 100 μM and 5 μM concentrations in PBS buffer at 37° C. (FIG. 32). […] After 2 hrs, around 70% of the PXL-buSS-Tau was cleaved by glutathione at 5 μM while only 40% paclitaxel was released at 100 μM, again illustrating the protective effect that self-assembly into nanostructures has upon the biodegradable linker.

For data set [7], the system named is human breast cancer MCF-7. Type of data set: cell-based. As for the experimental part: as §3
A short description of data set [8]: Critical micellization concentration of CPT drug amphiphiles by a fluorescence method. The format is physicochemical. The following applies: 10 mM sodium phosphate. As for the experimental part: FIGS. 5A-5C depicts the fluorometric determination of the CMC values for mCPT-buSS-Tau (a), dCPT-buSS-Tau (b) and qCPT-buSS-Tau (c) in 10 mM sodium phosphate.
The critical micellization concentrations of mCPT-buSS-Tau, dCPT-buSS-Tau and qCPT-buSS-Tau were determined to be 207 nM, 74 nM and 53 nM, respectively, by a fluorescence method (FIG. 5). These very low values are in the range of macromolecular amphiphiles and are an important property of these conjugates. A high value would lead to rapid dissociation of the nanostructure when diluted upon introduction into the bloodstream, whereas a low value would impart greater stability to the assembly during circulation.

Regarding `CC[C@@]1(O)C(=O)OCc2c1cc1n(c2=O)Cc2cc3ccccc3nc2-1` [CPT, camptothecin], the activity entry in data set [1] is “moderate activity”.

As to `CC(=O)O[C@H]1C(=O)[C@@]2(C)[C@H]([C@H](OC(=O)c3ccccc3)[C@]3(O)C[C@H](OC(=O)[C@H](O)[C@@H](NC(=O)c4ccccc4)c4ccccc4)C(C)=C1C3(C)C)[C@]1(OC(C)=O)CO[C@@H]1C[C@@H]2O` [PXL, paclitaxel, reference compound], the “sensitivity of cells / activity” value in data set [2] was “no activity”.

Turning to `CC(=O)N[C@@H](CSSCCCC(=O)O[C@@H](C(=O)O[C@H]1C[C@@]2(O)[C@@H](OC(=O)c3ccccc3)[C@@H]3[C@]4(OC(C)=O)CO[C@@H]4C[C@H](O)[C@@]3(C)C(=O)[C@H](OC(C)=O)C(=C1C)C2(C)C)[C@@H](NC(=O)c1ccccc1)c1ccccc1)C(=O)NCCCC[C@H](NC(=O)[C@H](CSSCCCC(=O)O[C@@H](C(=O)O[C@H]1C[C@@]2(O)[C@@H](OC(=O)c3ccccc3)[C@@H]3[C@]4(OC(C)=O)CO[C@@H]4C[C@H](O)[C@@]3(C)C(=O)[C@H](OC(C)=O)C(=C1C)C2(C)C)[C@@H](NC(=O)c1ccccc1)c1ccccc1)NC(C)=O)C(=O)NCC(=O)N[C@@H](CC(N)=O)C(=O)N[C@@H](CC(N)=O)C(=O)N[C@@H](CCC(N)=O)C(=O)N[C@@H](CCC(N)=O)C(=O)N[C@@H](CC(N)=O)C(=O)N[C@@H](Cc1ccc(O)cc1)C(=O)N[C@@H](CCCCN)C(=O)N[C@@H](CCCCN)C(N)=O` [dPXL-Sup35] (Ac-C(Paclitaxel(2'-OCO(CH2)3S))K(X1)GNNQQNYKK-NH2), in data set [2], the “sensitivity of cells / activity” value is “no activity”. The sensitivity of cells result in data set [3] was “nano-molar sensitivity”.

“PXL-buSS-Tau (Ac-CGVQIVYKK; also: PXL-buSS conjugate, attachment site not given here)”: the cytotoxic effect result in data set [4], in data set [5] and in data set [7] was “strong cytotoxic effect” each time. The “PXL-buSS-Tau cleaved by glutathione” value in data set [6] (5 μM, after 2 hrs, PBS, 37° C., glutathione) was “around 70%”. The “release at 5 μM compared with 100 μM” value in data set [6] (5 μM, presence of glutathione) is “much faster release than that of 100 μM”. For the same molecule, in data set [6] (100 μM, after 30 minutes, presence of glutathione), the release of paclitaxel entry was “Significant release of paclitaxel”. For the same molecule, the paclitaxel released in data set [6] (100 μM, after 2 hrs, PBS, 37° C., glutathione) was found to be 40%.

In the case of “mCPT-buSS-Tau: one camptothecin linked via disulfanylbutanoate (buSS) linker to cysteine-functionalized Tau peptide CGVQIVYKK (C([buSS-camptothecin])GVQIVYKK; not fully specified (C-terminus))”, the critical micellization concentration in data set [8] turned out to be 207 nM.
